This note sets out measurements from patent publication US20200392251A1 (University of California, published 2020).

For assay [1], the target named is human MMP-12 catalytic domain mutant D4 (cdMMP-12 D4) (human). In words: cell-based or functional assay.
For assay [2], the target named is T1, human MMP-12 catalytic domain wild type (cdMMP-12 wt) (human, UniProt P39900 106-263). In words: cell-based or functional assay.
The target of assay [3] is T2, catalytic domain of human MMP-14 (cdMMP-14) (human, UniProt P50281 114-320).
T2 construct: range 114-320; Produced active in E. coli periplasm; biotinylated for BLI/ELISA
In words: bio-layer interferometry. In general terms: In BLI a coated tip is dipped into the sample, and binding shifts an interference pattern.

Assay [4] concerns the target T2, catalytic domain of human MMP-14 …. In words: FRET peptide inhibition assay.
Description: (§1) To calculate inhibition constants (KIs), data were fit with the equations for slow tight-binding inhibitors. The inhibition type of the Fabs was determined using the initial velocities of cdMMP-12 D4 as a function of substrate concentration (250-2000 nM) at various Fab concentrations (31-500 nM). The values of Vₘₐₓ and Kₘ were derived from linearization in accordance with the Lineweaver-Burk equation.
Assay [5] deals with T3, human MMP-12 catalytic domain mutant D4 (cdMMP-12 D4) (human).
T3 construct: PROSS-designed expression-optimised mutant; Cytoplasmically expressed in E. coli, purified on Ni-NTA; biotinylated for ELISA/BLI; also called cdMMP-12 mutant D4; modified D4
T3 sequence (chain, as listed by the source mutant limits assumed): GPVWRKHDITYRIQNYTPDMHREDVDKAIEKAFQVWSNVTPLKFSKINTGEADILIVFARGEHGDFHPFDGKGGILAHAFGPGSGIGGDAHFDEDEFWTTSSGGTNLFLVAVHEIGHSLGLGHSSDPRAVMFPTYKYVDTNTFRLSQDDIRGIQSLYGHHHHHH
The assay is described as follows: FRET peptide (M-2350) inhibition assay.
Description: as §1

Assay [6] concerns the target T2, catalytic domain of human MMP-14 …. In words: bio-layer interferometry; reference cdMMP-12 wt.
The target is the same in assay [7]. In words: FRET peptide inhibition assay; reference cdMMP-12 mutant D4.
Description: as §1
Assay [8] deals with T3, human MMP-12 catalytic domain mutant D4 …. The assay is described as follows: direct ELISA; biotinylated cdMMP on streptavidin plate, Fab titrated, anti-Fab-HRP. On the technique in general: ELISA stands for enzyme-linked immunosorbent assay.
Description: (§2) On streptavidin coated ELISA plates, 5 μg/mL biotinylated cdMMPs were immobilized and incubated with two-fold serially diluted purified Fabs. Bound Fabs were detected with anti-Fab-HRP (Sigma-Aldrich), and signals were developed by TMB substrate (Thermo Scientific) and measured using a microplate reader (BioTek). […] Bound Fabs were detected using anti-Fab-HRP. For bio-layer interferometry (using ForteBio BLItz), biotinylated cdMMP-12 D4/wt was loaded onto streptavidin biosensors. After washing to establish baselines, 50, 100, or 200 nM of Fabs were associated with immobilized cdMMP-12 D4/wt for 200 sec, then dissociated into 50 mM HEPES, 150 mM NaCl pH 7.5 for 120 sec. Averages of measured kₒₙ and koff values were determined for KD calculations.
The target of assay [9] is T1, human MMP-12 catalytic domain wild type …. Described as above.
Description: as §2
Assay [10] concerns the target T3, human MMP-12 catalytic domain mutant D4 …. The assay is described as follows: bio-layer interferometry (BLItz); biotinylated cdMMP-12 on streptavidin sensor, 50/100/200 nM Fab.
Description: as §2
Assay [11] deals with T1, human MMP-12 catalytic domain wild type …. The description is as above.
Description: as §2
Assay [12] concerns the target T3, human MMP-12 catalytic domain mutant D4 …. In words: bio-layer interferometry (ForteBio BLItz), biotinylated cdMMP-12 D4 on streptavidin biosensor, Fab at 50, 100 and 200 nM [panel A, LH6].
Description: as §2
Assay [13] concerns the target T1, human MMP-12 catalytic domain wild type …. In words: bio-layer interferometry (ForteBio BLItz), biotinylated cdMMP-12 wt on streptavidin biosensor, Fab at 50, 100 and 200 nM [panel B, LH6].
Description: as §2
Assay [14] addresses T2, catalytic domain of human MMP-14 …. The assay is described as follows: FRET peptide inhibition assay; KI=IC50/(S/Km+1).
Description: (§3) For inhibition tests, 1 μM Fabs were 2-fold serially diluted into protease specific assay buffer and incubated with 1-10 nM proteases for 30 min at room temperature. […] Inhibition percentages at given concentrations were calculated by comparing the initial reaction rates in the presence or absence of inhibitor. […] Vₘₐₓ and Kₘ at various Fab concentrations were measured to determine the inhibition type. FRET inhibition assays were also used for selectivity tests of isolated Fabs with the relevant proteases.
For assay [15] the target is unchanged. In words: biolayer interferometry; biotinylated protease on streptavidin sensor, Fab in solution.
Description: (§4) Binding kinetics of produced antibodies towards associated protease targets were analyzed by using biolayer interferometry (ForteBio). For Fabs, biotinylated proteases were immobilized on streptavidin biosensors, and Fab binding to the sensors in absence of protease was monitored as backgrounds.
Assay [16] shares this target. In words: enzyme inhibition assay with FRET peptide substrate (M-2350), Fab titrated on cdMMP-14 [panel 2B4].
Description: as §3
The target is the same in assay [17]. The assay is described as follows: bio-layer interferometry (ForteBio), biotinylated protease on streptavidin biosensor, Fab in solution [panel 2B4].
Description: as §4
In assay [18] the target is human β-secretase 1 (BACE1), extracellular/catalytic domain (human, UniProt P56817 46-457, limits assumed). The assay is described as follows: cell-based or functional assay.
Sequence of human β-secretase 1 (BACE1), extracellular/catalytic domain (P56817 46-457 limits assumed, form in doubt): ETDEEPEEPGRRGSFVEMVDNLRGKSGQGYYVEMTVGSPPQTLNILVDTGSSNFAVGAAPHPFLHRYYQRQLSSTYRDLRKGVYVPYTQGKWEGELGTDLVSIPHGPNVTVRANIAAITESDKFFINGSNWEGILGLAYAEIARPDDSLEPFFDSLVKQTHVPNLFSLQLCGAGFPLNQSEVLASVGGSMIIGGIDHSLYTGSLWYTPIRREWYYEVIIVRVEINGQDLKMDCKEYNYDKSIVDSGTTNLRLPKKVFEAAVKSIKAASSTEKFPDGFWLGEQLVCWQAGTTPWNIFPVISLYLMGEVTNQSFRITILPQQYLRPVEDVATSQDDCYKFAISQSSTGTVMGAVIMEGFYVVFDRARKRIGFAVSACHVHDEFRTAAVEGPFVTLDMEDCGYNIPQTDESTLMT
Assay [19] deals with T2, catalytic domain of human MMP-14 …. The assay is described as follows: enzyme inhibition assay with FRET peptide substrate (M-2350), Fab titrated on cdMMP-14 [panel 2B12].
Description: as §3
Assay [20] has the same target. The assay is described as follows: bio-layer interferometry (ForteBio), biotinylated protease on streptavidin biosensor, Fab in solution [panel 2B12].
Description: as §4
Assay [21] has as its target T3, human MMP-12 catalytic domain mutant D4 …. The assay is described as follows: bio-layer interferometry (ForteBio BLItz), biotinylated cdMMP-12 D4 on streptavidin biosensor, Fab at 50, 100 and 200 nM [panel A, LG4].
Description: as §2
Assay [22] addresses T1, human MMP-12 catalytic domain wild type …. In words: bio-layer interferometry (ForteBio BLItz), biotinylated cdMMP-12 wt on streptavidin biosensor, Fab at 50, 100 and 200 nM [panel B, LG4].
Description: as §2
Assay [23] deals with T3, human MMP-12 catalytic domain mutant D4 …. The assay is described as follows: bio-layer interferometry (ForteBio BLItz), biotinylated cdMMP-12 D4 on streptavidin biosensor, Fab at 50, 100 and 200 nM [panel A, LH11].
Description: as §2
The target of assay [24] is T1, human MMP-12 catalytic domain wild type …. The assay is described as follows: bio-layer interferometry (ForteBio BLItz), biotinylated cdMMP-12 wt on streptavidin biosensor, Fab at 50, 100 and 200 nM [panel B, LH11].
Description: as §2
In assay [25] the target is T2, catalytic domain of human MMP-14 …. The assay is described as follows: enzyme inhibition assay with FRET peptide substrate (M-2350), Fab titrated on cdMMP-14 [panel 1A5].
Description: as §3
Assay [26] has the same target. In words: bio-layer interferometry (ForteBio), biotinylated protease on streptavidin biosensor, Fab in solution [panel 1A5].
Description: as §4

T1 sequence (P39900 other isoform, or with tags, fused parts or gaps limits assumed): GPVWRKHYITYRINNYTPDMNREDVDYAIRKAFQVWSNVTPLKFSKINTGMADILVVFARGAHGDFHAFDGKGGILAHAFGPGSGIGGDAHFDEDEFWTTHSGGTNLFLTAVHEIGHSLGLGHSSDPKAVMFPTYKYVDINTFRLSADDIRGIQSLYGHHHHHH

B1: anti-MMP-12 Fab LH6 (Fab, V domains shown)
VH: EVQLVESGGGLVQPGGSLRLSCAASGFNLSYSYMHWVRQAPGKGLEWVASIYPSYGSTYYADSVKGRFTISADTSKNTAYLQMNSLRAEDTAVYYCARDLEESLPKRARTAVSKELESVPYVMDYWGQGTLVTVSS
VL: DIQMTQSPSSLSASVGDRVTITCRASQSVSSAVAWYQQKPGKAPKLLIYSASSLYSGVPSRFSGSRSGTDFTLTISSLQPEDFATYYCQQSSHYASPPITFGQGTKVEIKR
notes: Fab from a synthetic human Fab library with long CDR-H3s, produced in E. coli periplasm; also called Clone LH6
What is called Kd is the equilibrium constant for the complex coming apart. For orientation: Ki means a measure of affinity in units of concentration, obtained from inhibition or displacement. By EC50 is commonly meant the concentration that produces a half-maximal response. High values mean a need for much substance, low ones an effect from little substance. A word on the koff: it is the rate constant with which the complex falls apart. Low values mean slow dissociation, high ones fast dissociation. One may read the kon as the second-order rate constant of association. Higher therefore signals fast association. Take B1: the entries for the “Inhibition, Elastin-FITC IC50” value in assay [1] and in assay [2] were 0.061 µM and 1.7 µM, respectively. Besides, the Kd in assay [3] is 0.48 µM; in assay [10], 0.51 µM; in [11], 0.43 µM. In addition, the Ki in assay [4] is 4.7 µM; in [5], 0.091 µM. Besides, the “fold (KD compared with cdMMP-12 wt)” value in assay [6] stood at 1.1 fold. Also, the “fold (KI compared with cdMMP-12 mutant D4)” value in [7] was 52 fold. The EC50 was 0.29 µM in assay [8] and approximately 1 µM in assay [9]. Also, the koff in assay [12] turned out to be 0.011 s⁻¹; in assay [13] it was 0.0065 s⁻¹. The results for the kon in assay [12] and in assay [13] were 22000 M⁻¹ s⁻¹ and 15000 M⁻¹ s⁻¹, respectively.

B2: anti-MMP-14 Fab 2B4 (Fab, V domains shown)
VH: EVQLVESGGGLVQPGGSLRLSCAASGFNLYSSYIHWVRQAPGKGLEWVASIYSSYSSTYYADSVKGRFTISADTSKNTAYLQMNSLRAEDTAVYYCARSDSAVYSVRRMGSSGLAAYAMDYWGQGTLVTVSS
VL: DIQMTQSPSSLSASVGDRVTITCRASQSVSSAVAWYQQKPGKAPKLLIYSASSLYSGVPSRFSGSRSGTDFTLTISSLQPEDFATYYCQQYSYGYSSLITFGQGTKVEIKR
notes: Fab from a synthetic human Fab library, produced in E. coli periplasm; also called Clone 2B4
The term IC50 denotes the concentration that inhibits the measured activity by half. Read a high IC50 as weaker potency. B2 registered a Ki in assay [14] of 0.098 µM. Besides, in assay [15], binding was put at a Kd of 0.066 µM. The IC50 in assay [16] came to 0.11 µM. Further, in assay [17], the koff was 0.00079 s⁻¹ and the kon stood at 12000 M⁻¹ s⁻¹.

B3: anti-BACE1 IgG B2B2 (antibody, V domains shown)
VH: EVQLVESGGGLVQPGGSLRLSCAASGFNISSYYMHWVRQAPGKGLEWVASIYSSYGYTYYADSVKGRFTISADTSKNTAYLQMNSLRAEDTAVYYCARYWGYYAWFGSHPWAYGAFDYWGQGTLVTVSS
VL: DIQMTQSPSSLSASVGDRVTITCRASQSVSSAVAWYQQKPGKAPKLLIYSASSLYSGVPSRFSGSRSGTDFTLTISSLQPEDFATYYCQQYGYYLITFGQGTKVEIKR
For the molecule B3, the “apparent IC50 of Aβ40 production, HEK293 cells expressing APP” value in [18] is 0.33 µM.

B4: anti-MMP-14 Fab 2B12 (Fab, V domains shown)
VH: EVQLVESGGGLVQPGGSLRLSCAASGFNIYYSSMHWVRQAPGKGLEWVAYIYSSSSYTYYADSVKGRFTISADTSKNTAYLQMNSLRAEDTAVYYCARDCCSCVFSQSAGITLACVYVMDYWGQGTLVTVSS
VL: DIQMTQSPSSLSASVGDRVTITCRASQSVSSAVAWYQQKPGKAPKLLIYSASSLYSGVPSRFSGSRSGTDFTLTISSLQPEDFATYYCQQWGPHYAPITFGQGTKVEIKR
notes: Fab from a synthetic human Fab library, produced in E. coli periplasm; also called Clone 2B12
As to B4, in assay [14], the inhibition constant Ki turned out to be 0.12 µM. The same molecule registered a Kd in assay [15] of 0.076 µM. This molecule displayed an IC50 in assay [19] of 0.14 µM. In [20], this molecule gave a koff of 0.0053 s⁻¹ and a kon of 70000 M⁻¹ s⁻¹.

B5: anti-MMP-12 Fab LG4 (Fab, V domains shown)
VH: EVQLVESGGGLVQPGGSLRLSCAASGFNLYYSYMHWVRQAPGKGLEWVASISSYYGYTSYADSVKGRFTISADTSKNTAYLQMNSLRAEDTAVYYCARSPIVYYELFMFIDMGAQGWKYGMDYWGQGTLVTVSS
VL: DIQMTQSPSSLSASVGDRVTITCRASQSVSSAVAWYQQKPGKAPKLLIYSASSLYSGVPSRFSGSRSGTDFTLTISSLQPEDFATYYCQQTFYPFTFGQGTKVEIKR
notes: Fab from a synthetic human Fab library with long CDR-H3s, produced in E. coli periplasm; also called Clone LG4
In the case of B5, the “Inhibition, Elastin-FITC IC50” value in assay [1] came out at 0.21 µM; in assay [2] it was 0.35 µM. Further, the dissociation constant Kd in assay [3] worked out at 0.64 µM; in [10] it was 0.037 µM; in assay [11] it was 0.071 µM. In assay [5], this molecule yielded a Ki of 0.076 µM. The “fold (KD compared with cdMMP-12 wt)” value in [6] amounted to 9 fold. The EC50 turned out to be 0.097 µM in [8] and 0.18 µM in [9]. The koff worked out at 0.0041 s⁻¹ in assay [21] and 0.0038 s⁻¹ in assay [22]. The kon in [21] amounted to 110000 M⁻¹ s⁻¹; in [22] it was 54000 M⁻¹ s⁻¹.

B6: anti-MMP-12 Fab LH11 (Fab, V domains shown)
VH: EVQLVESGGGLVQPGGSLRLSCAASGFNLSYYSMHWVRQAPGKGLEWVAYIYPYYGSTYYADSVKGRFTISADTSKNTAYLQMNSLRAEDTAVYYCARFLLSIGKLFVGDGSILHVWL
VL: DIQMTQSPSSLSASVGDRVTITCRASQSVSSAVAWYQQKPGKAPKLLIYSASSLYSGVPSRFSGSRSGTDFTLTISSLQPEDFATYYCQQAYYGYLFTFGQGTKVEIKR
notes: Fab from a synthetic human Fab library with long CDR-H3s, produced in E. coli periplasm; also called Clone LH11
Take B6: the “Inhibition, Elastin-FITC IC50” value came to 0.018 µM in [1] and 0.023 µM in assay [2]. For the same molecule, the “Inhibition, Fibronectin IC50” value in assay [2] amounted to 0.51 µM. The results for the Kd in assay [3], in [10] and in assay [11] were 0.78 µM, 0.038 µM and 0.075 µM, respectively. Further, the values for the Ki in assay [4] and in assay [5] were 9.6 µM and 0.075 µM, respectively. The “fold (KD compared with cdMMP-12 wt)” value in [6] turned out to be 10 fold. For the same molecule, the “fold (KI compared with cdMMP-12 mutant D4)” value in assay [7] amounted to 130 fold. For the same molecule, the EC50 in assay [8] came to 0.1 µM; in [9], 0.14 µM. Further, the koff in [23] worked out at 0.0035 s⁻¹; in assay [24], 0.0032 s⁻¹. The kon was 92000 M⁻¹ s⁻¹ in [23] and 43000 M⁻¹ s⁻¹ in assay [24].

B7: anti-MMP-14 Fab 1A5 (Fab, V domains shown)
VH: EVQLVESGGGLVQPGGSLRLSCAASGFNLYYYYMHWVRQAPGKGLEWVAYIYPYSGSTYYADSVKGRFTISADTSKNTAYLQMNSLRAEDTAVYYCARLDFLMRDIYYDLGGGALGWLIKYAMDYWGQGTLVTVSS
VL: DIQMTQSPSSLSASVGDRVTITCRASQSVSSAVAWYQQKPGKAPKLLIYSASSLYSGVPSRFSGSRSGTDFTLTISSLQPEDFATYYCQQYSGPYPITFGQGTKVEIKR
notes: Fab from a synthetic human Fab library, produced in E. coli periplasm; also called Clone 1A5
In assay [14], B7 yielded an inhibition constant (Ki) of 0.15 µM. In addition, binding in assay [15] was put at a Kd of 0.057 µM. The IC50 in [25] worked out at 0.17 µM. Moreover, in assay [26], the koff was 0.0025 s⁻¹ and the kon amounted to 44000 M⁻¹ s⁻¹.
